Drawing on the Human Domainome abundance scans (Beltran et al. 2025), this text covers abundance fitness for 50 variants.

B1: DnaJ homolog subfamily C member 2, residues 451 to 503; numbered along this chain, Q99543 (parent)
chain: SKNWSEDDLQLLIKAVNLFPAGTNSRWEVIANYMNIHSSSGVKRTAKDVIGKA

± gives the uncertainty stated by the source.

This series covers variants of B1. Description: abundance fitness (aPCA) (normalised: wild type 0, dead -1); higher = more abundant; growth selection in yeast, the domain comes from the species named. The following applies: Homo sapiens.
As for SKNWSEDDLQLLWKAVNLFPAGTNSRWEVIANYMNIHSSSGVKRTAKDVIGKA, the abundance fitness came out at 0.058 ± 0.064.
Under SKNWSEDDLQLLVKAVNLFPAGTNSRWEVIANYMNIHSSSGVKRTAKDVIGKA stands -0.033 ± 0.057; under SKNWSEDDLQLLSKAVNLFPAGTNSRWEVIANYMNIHSSSGVKRTAKDVIGKA, 0.073 ± 0.054.
Under SKNWSEDDLQLLAKAVNLFPAGTNSRWEVIANYMNIHSSSGVKRTAKDVIGKA stands 0.14 ± 0.065.
Under SKNWSEDDLQLLMKAVNLFPAGTNSRWEVIANYMNIHSSSGVKRTAKDVIGKA stands 0.021 ± 0.069; under SKNWSEDDLQLLDKAVNLFPAGTNSRWEVIANYMNIHSSSGVKRTAKDVIGKA, 0.142 ± 0.078.
With SKNWSEDDLQLLNKAVNLFPAGTNSRWEVIANYMNIHSSSGVKRTAKDVIGKA, the abundance fitness was -0.097 ± 0.11.
As for SKNWSEDDLQLLYKAVNLFPAGTNSRWEVIANYMNIHSSSGVKRTAKDVIGKA, the figure is -0.038 ± 0.076; as for SKNWSEDDLQLLCKAVNLFPAGTNSRWEVIANYMNIHSSSGVKRTAKDVIGKA, -0.147 ± 0.082.
Regarding SKNWSEDDLQLLHKAVNLFPAGTNSRWEVIANYMNIHSSSGVKRTAKDVIGKA, the abundance fitness is 0.042 ± 0.1.
For SKNWSEDDLQLLKKAVNLFPAGTNSRWEVIANYMNIHSSSGVKRTAKDVIGKA, the abundance fitness was 0.053 ± 0.074.
As for SKNWSEDDLQLLGKAVNLFPAGTNSRWEVIANYMNIHSSSGVKRTAKDVIGKA, the abundance fitness turned out to be 0.099 ± 0.054.
As for SKNWSEDDLQLLTKAVNLFPAGTNSRWEVIANYMNIHSSSGVKRTAKDVIGKA, the figure is -0.141 ± 0.072.
In the case of SKNWSEDDLQLLPKAVNLFPAGTNSRWEVIANYMNIHSSSGVKRTAKDVIGKA, the abundance fitness is -0.537 ± 0.079.
Under SKNWSEDDLQLLFKAVNLFPAGTNSRWEVIANYMNIHSSSGVKRTAKDVIGKA stands 0.039 ± 0.083.
Under SKNWSEDDLALLIKAVNLFPAGTNSRWEVIANYMNIHSSSGVKRTAKDVIGKA stands -0.189 ± 0.063; under SKNWSEDDLYLLIKAVNLFPAGTNSRWEVIANYMNIHSSSGVKRTAKDVIGKA, -0.207 ± 0.094; under SKNWSEDDLLLLIKAVNLFPAGTNSRWEVIANYMNIHSSSGVKRTAKDVIGKA, -0.141 ± 0.056.
Under SKNWSEDDLTLLIKAVNLFPAGTNSRWEVIANYMNIHSSSGVKRTAKDVIGKA stands -0.319 ± 0.073.
Take SKNWSEDDLPLLIKAVNLFPAGTNSRWEVIANYMNIHSSSGVKRTAKDVIGKA: the abundance fitness was -0.802 ± 0.078.
As for SKNWSEDDLMLLIKAVNLFPAGTNSRWEVIANYMNIHSSSGVKRTAKDVIGKA, the figure is -0.34 ± 0.08.
Under SKNWSEDDLFLLIKAVNLFPAGTNSRWEVIANYMNIHSSSGVKRTAKDVIGKA stands -0.483 ± 0.083; under SKNWSEDDLDLLIKAVNLFPAGTNSRWEVIANYMNIHSSSGVKRTAKDVIGKA, -0.217 ± 0.075.
As for SKNWSEDDLCLLIKAVNLFPAGTNSRWEVIANYMNIHSSSGVKRTAKDVIGKA, the figure is -0.577 ± 0.086; as for SKNWSEDDLKLLIKAVNLFPAGTNSRWEVIANYMNIHSSSGVKRTAKDVIGKA, -0.107 ± 0.075.
As to SKNWSEDDLNLLIKAVNLFPAGTNSRWEVIANYMNIHSSSGVKRTAKDVIGKA, the abundance fitness is -0.083 ± 0.085.
As for SKNWSEDDLILLIKAVNLFPAGTNSRWEVIANYMNIHSSSGVKRTAKDVIGKA, the figure is -0.212 ± 0.082; as for SKNWSEDDLSLLIKAVNLFPAGTNSRWEVIANYMNIHSSSGVKRTAKDVIGKA, -0.163 ± 0.06.
As for SKNWSEDDLHLLIKAVNLFPAGTNSRWEVIANYMNIHSSSGVKRTAKDVIGKA, the figure is -0.254 ± 0.075.
As for SKNWSEDDLELLIKAVNLFPAGTNSRWEVIANYMNIHSSSGVKRTAKDVIGKA, the figure is -0.054 ± 0.072; as for SKNWSEDDLVLLIKAVNLFPAGTNSRWEVIANYMNIHSSSGVKRTAKDVIGKA, -0.206 ± 0.06.
For the variant SKNWSEDDLWLLIKAVNLFPAGTNSRWEVIANYMNIHSSSGVKRTAKDVIGKA, the abundance fitness was -0.706 ± 0.094.
For the variant SKNWSEDDLGLLIKAVNLFPAGTNSRWEVIANYMNIHSSSGVKRTAKDVIGKA, the abundance fitness was -0.141 ± 0.062.
As for SKNWSEDDLQLLIEAVNLFPAGTNSRWEVIANYMNIHSSSGVKRTAKDVIGKA, the figure is -0.096 ± 0.066; as for SKNWSEDDLQLLIHAVNLFPAGTNSRWEVIANYMNIHSSSGVKRTAKDVIGKA, -0.05 ± 0.098.
Under SKNWSEDDLQLLIGAVNLFPAGTNSRWEVIANYMNIHSSSGVKRTAKDVIGKA stands -0.243 ± 0.055.
With SKNWSEDDLQLLIMAVNLFPAGTNSRWEVIANYMNIHSSSGVKRTAKDVIGKA, the abundance fitness is -0.226 ± 0.084.
Under SKNWSEDDLQLLILAVNLFPAGTNSRWEVIANYMNIHSSSGVKRTAKDVIGKA stands -0.317 ± 0.055.
With SKNWSEDDLQLLIVAVNLFPAGTNSRWEVIANYMNIHSSSGVKRTAKDVIGKA, the abundance fitness is -0.196 ± 0.059.
As for SKNWSEDDLQLLIDAVNLFPAGTNSRWEVIANYMNIHSSSGVKRTAKDVIGKA, the figure is -0.054 ± 0.084.
As for SKNWSEDDLQLLINAVNLFPAGTNSRWEVIANYMNIHSSSGVKRTAKDVIGKA, the figure is -0.274 ± 0.095; as for SKNWSEDDLQLLIRAVNLFPAGTNSRWEVIANYMNIHSSSGVKRTAKDVIGKA, -0.088 ± 0.053.
Under SKNWSEDDLQLLIWAVNLFPAGTNSRWEVIANYMNIHSSSGVKRTAKDVIGKA stands -0.602 ± 0.079; under SKNWSEDDLQLLIQAVNLFPAGTNSRWEVIANYMNIHSSSGVKRTAKDVIGKA, -0.308 ± 0.071.
Consider SKNWSEDDLQLLISAVNLFPAGTNSRWEVIANYMNIHSSSGVKRTAKDVIGKA, for which the abundance fitness is -0.225 ± 0.062.
Under SKNWSEDDLQLLIFAVNLFPAGTNSRWEVIANYMNIHSSSGVKRTAKDVIGKA stands -0.006 ± 0.084.
Under SKNWSEDDLQLLIAAVNLFPAGTNSRWEVIANYMNIHSSSGVKRTAKDVIGKA stands -0.026 ± 0.065.
As for SKNWSEDDLQLLICAVNLFPAGTNSRWEVIANYMNIHSSSGVKRTAKDVIGKA, the figure is -0.274 ± 0.07; as for SKNWSEDDLQLLIPAVNLFPAGTNSRWEVIANYMNIHSSSGVKRTAKDVIGKA, -0.971 ± 0.099; as for SKNWSEDDLQLLIIAVNLFPAGTNSRWEVIANYMNIHSSSGVKRTAKDVIGKA, -0.296 ± 0.094.
